Results from patent US12077763B2, “RNA-based control of powdery mildew” (Greenlight Biosciences, Inc., priority 2021, dated 2024).

B1: GS1843: dsRNA trigger SEQ ID NO 184; gene target Ubiquitin-like protein SMT3 (nucleic acid)
chain: ATAAACCTGCCTTAGATACTAAATCAGGAGTTGGCGTTTTATGGGATTCTATTAGAGTTGTAAATTTCAAAGATACTTTGATTGGATTTTCTTAGATTAACCTCGACGAGAATCGATTTTCTAGATTTTTGGCTAAATCATACGAATTCAAATTTTCTTAGTAAATTGGACAATGCGCGCCGTAAACATATCGGGATGAAATTTTTTAATAATAAAATCAATTGAAAATAATAAATTTATATCCTATTTAATCACCGCCAACAAGAAGTTCGTTTTCCTTACCTACCTAGAATTAGTTTTTAGATATCGTTCGATGTTTCGTGAATTTCAAATCCAGATGTTGCCGCCGATTTGTTCTTGATGCACCTCTAGCGTATCTCCATCTGCCATATCGAGAAACTCAGGACTATCAGTTTGTTGAACACGACTCCCTTCAAATAAGAATCGAACAGAAGAAAGTGATTTCCCTTGCCTCTCACAGAACGCGTCCATCAATTTCTTAAGTGGTGTTGTTCGTTTAATTTTGAAGAAGACTTCATTATTGTTATCTGTAACCTTGATATTTAAATGTTCA
B2: GS1845: dsRNA trigger SEQ ID NO 191; gene target Singe-stranded TG1-3 DNA-binding protein (nucleic acid)
chain: CAGATACTGCCCAAACTACCTTCATAATTTTCCGAGCTACACACCAGAACCTCGAGTATTGACATTACGGAATCATCTCACCATTTAAAAGTTGCGGTTTAACTTAAGCTGTAGCCGCAACAGTTTCAGCTGTCCCAGCTAGTCCTTCTGATTGAAGTTTATCATTAGTAATCCCTTTAGCGATGGCGCCATTAGTACCTTCGGTTGAGTTGCCAACATTAGATACTTCGCCAGCACCATCAGATACATGTGTAGTTAATTCTTCAGAGGTCTTGTCCGGACTATCTATTGCGATCTTTACTGCAATCTCACGACCTTGAACTTCTTTTCCATTCATTTCGGCAACAGCCCTATTTTGAAGTTCATTAGATGCTAAGTTCACAAAGCCAAACCCACGGCCTTTCCGAGGTTCGTTGCGGGCCTGAAGCTTTTTAACCATGAATTTTGGAATAGGACGCAGAGCAATTTTGGCAGATACTGGTTCGTAATCGGCAAATAGTTCCTTTAACTTTTCCTCGGATAAGTCATAAGGAAGATTGGCAACCATAACTTTTGTCTTAGATGGAAC
B3: GS1846: dsRNA trigger SEQ ID NO 135; gene target Calcium-transporting ATPase 2 (nucleic acid)
chain: AGACCTTCGGGTACTGCTACAACAATTACAGTGACTGTCACAATGAAAATTTGCAGAAATTGCTGACCTTTAACGGTTGGTGTAGCATCATTGTTAGGTAGTCTAGCCAGAAACTCAATGAATAAGACTGTAAATAATAATAGACCAGCTCCTCCTCCAAGTTTAGCTATATACTCTGCTAAATTGTTCAATTTTGACTGTAATGGCGTGATTTCCGGATCTTCACGGAGCGACATTAATGTTTTCCCATAACTAGAGTTTACACCAGTTGAAGTAACTAAAAATGTACCCACACCTTCAGTGACAGTAGCCCCAGACAAAATAAATGGATCTAATTTTTCTAGCTTTTCGTGGTTCGAGATAGCAGCATAAACTTGGTCTGCCGGATGCTTGCGAATAATATCGGACTCGCCAGTTATTTGAGACTCATCACATCTAAGATTATGCCCTCCAATAAAAATTCCATCAACAGGAATCATGTCGCCAGGTTCAAGATGTAAAACATCGCCTACAAGAACATCATAGATGGATATTTCCGAAGTTTTCCCGGAACGAGTCACATTTACAT

Tested on: E. necator
Experiment: Leaf disc assay, dry inoculum (settling tower), decrease in disease severity / hyphal growth (Example 2)
Settings: decrease in disease severity (hyphal growth) relative to untreated control, value ± SE; for % decrease =/− SE TP1: time point 1 (untreated control hyphal growth ≥50%); for % decrease =/− SE TP2: time point 2

Molecule	% decrease =/− SE TP1 [%]	% decrease =/− SE TP2 [%]
B1	20 ± 5	16 ± 8
B2	23 ± 6	24 ± 6
B3	22 ± 5	
